Columns and labels:
Assay in all cases: cell-based or functional assay
[1] = target: HIV-1 Env of pseudovirus 191955_A11 (HIV-1)
[2] = target: HIV-1 Env of pseudovirus C3347.c11 (HIV-1)
[3] = target: HIV-1 Env of pseudovirus TRJO4551.58 (HIV-1)
[4] = target: HIV-1 Env of pseudovirus CAP45.2.00.G3 (HIV-1)
[5] = target: HIV-1 Env of pseudovirus CNE52 (HIV-1)
[6] = target: HIV-1 Env of pseudovirus CNE21 (HIV-1)
[7] = target: HIV-1 Env of pseudovirus 1056_10_TA11_1826 (HIV-1)
[8] = target: HIV-1 Env of pseudovirus CNE30 (HIV-1)
[9] = target: HIV-1 Env of pseudovirus 6244_13_B5_4576 (HIV-1)
[10] = target: HIV-1 Env of pseudovirus 235-47 (HIV-1)
[11] = target: HIV-1 Env of pseudovirus Ce0393_C3 (HIV-1)
[12] = target: HIV-1 Env of pseudovirus 62357_14_D3_4589 (HIV-1)
[13] = target: HIV-1 Env of pseudovirus R1166.c01 (HIV-1)
[14] = target: HIV-1 Env of pseudovirus T251-18 (HIV-1)
[15] = target: HIV-1 Env of pseudovirus CAP210.2.00.E8 (HIV-1)
[16] = target: HIV-1 Env of pseudovirus Ce1176_A3 (HIV-1)
[17] = target: HIV-1 Env of pseudovirus SC05_8C11_2344 (HIV-1)
[18] = target: HIV-1 Env of pseudovirus ZM135M.PL10a (HIV-1)
[19] = target: HIV-1 Env of pseudovirus ZM233M.PB6 (HIV-1)
[20] = target: HIV-1 Env of pseudovirus T255-34 (HIV-1)
[21] = target: HIV-1 Env of pseudovirus 1006_11_C3_1601 (HIV-1)
[22] = target: HIV-1 Env of pseudovirus R2184.c04 (HIV-1)
[23] = target: HIV-1 Env of pseudovirus CNE53 (HIV-1)
[24] = target: HIV-1 Env of pseudovirus C1080.c03 (HIV-1)
[25] = target: HIV-1 Env of pseudovirus 1012_11_TC21_3257 (HIV-1)
[26] = target: HIV-1 Env of pseudovirus Ce704809221_1B3 (HIV-1)
[27] = target: HIV-1 Env of pseudovirus BJOX009000.02.4 (HIV-1)
[28] = target: HIV-1 Env of pseudovirus RHPA4259.7 (HIV-1)
[29] = target: HIV-1 Env of pseudovirus ZM214M.PL15 (HIV-1)
[30] = target: HIV-1 Env of pseudovirus TRO.11 (HIV-1)
[31] = target: HIV-1 Env of pseudovirus HIV-0013095-2.11 (HIV-1)
[32] = target: HIV-1 Env of pseudovirus 249M B10 (HIV-1)

## N49P7 (antibody)
[1]
  neutralization IC50: 1.81 µg/mL
  neutralization IC80: 8.87 µg/mL
  neutralization MPI: 99
[2]
  neutralization IC50: 0.024 µg/mL
  neutralization IC80: 0.067 µg/mL
  neutralization MPI: 100
[3]
  neutralization IC50: 0.104 µg/mL
  neutralization IC80: 0.351 µg/mL
  neutralization MPI: 100
[4]
  neutralization IC50: 0.06 µg/mL
  neutralization IC80: 0.29 µg/mL
  neutralization MPI: 100
[5]
  neutralization IC50: 0.008 µg/mL
  neutralization IC80: 0.023 µg/mL
  neutralization MPI: 100
[6]
  neutralization IC50: 0.756 µg/mL
  neutralization IC80: 6.02 µg/mL
  neutralization MPI: 97
[7]
  neutralization IC50: 0.141 µg/mL
  neutralization IC80: 0.468 µg/mL
  neutralization MPI: 100
[8]
  neutralization IC50: 0.18 µg/mL
  neutralization IC80: 0.609 µg/mL
  neutralization MPI: 100
[9]
  neutralization IC50: 0.111 µg/mL
  neutralization IC80: 0.386 µg/mL
  neutralization MPI: 100
[10]
  neutralization IC50: 0.045 µg/mL
  neutralization IC80: 0.3 µg/mL
  neutralization MPI: 99
[11]
  neutralization IC50: 0.195 µg/mL
  neutralization IC80: 0.802 µg/mL
  neutralization MPI: 100
[12]
  neutralization IC50: 0.025 µg/mL
  neutralization IC80: 0.102 µg/mL
  neutralization MPI: 100
[13]
  neutralization IC50: 0.092 µg/mL
  neutralization IC80: 0.313 µg/mL
  neutralization MPI: 100
[14]
  neutralization IC50: 0.178 µg/mL
  neutralization IC80: 0.62 µg/mL
  neutralization MPI: 100
[15]
  neutralization IC50: 1.82 µg/mL
  neutralization IC80: 6.49 µg/mL
  neutralization MPI: 100
[16]
  neutralization IC50: 0.204 µg/mL
  neutralization IC80: 0.589 µg/mL
  neutralization MPI: 100
[17]
  neutralization IC50: 0.164 µg/mL
  neutralization IC80: 0.403 µg/mL
  neutralization MPI: 100
[18]
  neutralization IC50: 0.2 µg/mL
  neutralization IC80: 0.96 µg/mL
  neutralization MPI: 100
[19]
  neutralization IC50: 0.226 µg/mL
  neutralization IC80: 0.774 µg/mL
  neutralization MPI: 100
[20]
  neutralization IC50: 0.053 µg/mL
  neutralization IC80: 0.262 µg/mL
  neutralization MPI: 100
[21]
  neutralization IC50: 0.044 µg/mL
  neutralization IC80: 0.158 µg/mL
  neutralization MPI: 100
[22]
  neutralization IC50: 0.011 µg/mL
  neutralization IC80: 0.031 µg/mL
  neutralization MPI: 100
[23]
  neutralization IC50: 0.035 µg/mL
  neutralization IC80: 0.124 µg/mL
  neutralization MPI: 100
[24]
  neutralization IC50: 0.114 µg/mL
  neutralization IC80: 0.765 µg/mL
  neutralization MPI: 100
[25]
  neutralization IC50: 0.046 µg/mL
  neutralization IC80: 0.125 µg/mL
  neutralization MPI: 100
[26]
  neutralization IC50: 0.141 µg/mL
  neutralization IC80: 0.932 µg/mL
  neutralization MPI: 100
[27]
  neutralization IC50: 0.113 µg/mL
  neutralization IC80: 0.506 µg/mL
  neutralization MPI: 100
[28]
  neutralization IC50: 0.083 µg/mL
  neutralization IC80: 0.246 µg/mL
  neutralization MPI: 100
[29]
  neutralization IC50: 0.213 µg/mL
  neutralization IC80: 0.953 µg/mL
  neutralization MPI: 100
[30]
  neutralization IC50: 0.044 µg/mL
  neutralization IC80: 0.16 µg/mL
  neutralization MPI: 100
[31]
  neutralization IC50: 0.073 µg/mL
  neutralization IC80: 0.253 µg/mL
  neutralization MPI: 100
[32]
  neutralization IC50: 0.081 µg/mL
  neutralization IC80: 0.377 µg/mL
  neutralization MPI: 100
